These results are taken from patent publication US20230265217A1 (TWIST BIOSCIENCE, published 2023).

Numbering of substitutions follows the chain as printed.

Usually Kd stands for the free concentration of one partner at which half of the binding sites on the other are occupied at equilibrium, for simple one-to-one binding. One may read the koff as a measure of how fast the partners let go of each other. A low value points to slow dissociation. One may read the kon as a measure of how fast the partners come together. A lower kon goes with slow association.

Sequences and labels used below:
B1: 3-28 (VHH, not shown: a dimerising Fc or GST)
VHH: EVQLVESGGGLVQPGGSLRLSCAASGFTFRRYDMGWFRQAPGKEREFVSAISGGLAYYADSVKGRFTISADNSKNTAYLQMNSLKPEDTAVYYCAVDLSGDAVYDWGQGTLVTVSS
B2: 7-09 (VHH)
VHH: EVQLVESGGGLVQPGGSLRLSCAASGGTFSSIGMGWFRQAPGKEREFVAAISWDGGATAYADSVKGRFTISADNSKNTAYLQMNSLKPEDTAVYYCAKEDVGKPFDWGQGTLVTVSS
notes: also called 7-9
B3: 5A-1 (VHH)
VHH: B2 VHH
B4: 7-30 (VHH, not shown: a dimerising Fc or GST)
VHH: EVQLVESGGGLVQPGGSLRLSCAASGRTFSMHAMGWFRQAPGKEREFVASISSQGRTNYADSVKGRFTISADNSKNTAYLQMNSLKPEDTAVYYCAAEVRNGSDYLPIDWGQGTLVTVSS
B5: 6A-63 (VHH)
VHH: EVQLVESGGGLVQPGGSLRLSCAASGQTFNMGWFRQAPGKEREFVAAIGSGGSTSYADSVKGRFTISADNSKNTAYLQMNSLKPEDTAVYYCWRLGNDYFDYWGQGTLVTVSS
B6: 7-26 (VHH)
VHH: EVQLVESGGGLVQPGGSLRLSCAASGSTFSINAMGWFRQAPGKEREFVAGITSSGGYTNYADSVKGRFTISADNSKNTAYLQMNSLKPEDTAVYYCAADGVPEYSDYASGPVWGQGTLVTVSS
B7: 3-31 (VHH)
VHH: B6 VHH
notes: also called 3-31_ExpiCHO
B8: 7-37 (VHH)
VHH: B6 VHH with F29L, S53R, G56S, Y57V
B9: 6A-3 (VHH)
VHH: EVQLVESGGGLVQPGGSLRLSCAASGFTFSPSWMGWFRQAPGKEREFVATINEYGGRNYADSVKGRFTISADNSKNTAYLQMNSLKPEDTAVYYCARVDRDFDYWGQGTLVTVSS
B10: 7-14 (VHH)
VHH: EVQLVESGGGLVQPGGSLRLSCAASGSTFSINAMGWFRQAPGKEREFVAGISRGGTTNYADSVKGRFTISADNSKNTAYLQMNSLKPEDTAVYYCAADGVPEYSDYASGPVWGQGTLVTVSS
B11: 7-29 (VHH, not shown: a dimerising Fc or GST)
VHH: EVQLVESGGGLVQPGGSLRLSCAASGRTHSIYPMGWFRQAPGKEREFVASITSYGDTNYADSVKGRFTISADNSKNTAYLQMNSLKPEDTAVYYCAARRWIPPGPIWGQGTLVTVSS
B12: 7-6 (VHH, not shown: a dimerising Fc or GST)
VHH: EVQLVESGGGLVQPGGSLRLSCAASGRIFYPMGWFRQAPGKEREFVAAVRWSSTGIYYTQYADSVKGRFTISADNSKNTAYLQMNSLKPEDTAVYYCAAALSEVWRGSENLREGYDWGQGTLVTVSS
B13: 8-06 (VHH, not shown: a dimerising Fc or GST)
VHH: EVQLVESGGGLVQPGGSLRLSCAASGFTFDYYAMGWFRQAPGKEREFVSAIDSEGRTSYADSVKGRFTISADNSKNTAYLQMNSLKPEDTAVYYCARWGPFDIWGQGTLVTVSS
notes: also called 8-6
B14: 7-21 (VHH)
VHH: EVQLVESGGGLVQPGGSLRLSCAASGRTISRYTMGWFRQAPGKEREFVASITSGGSTAYADSVKGRFTISADNSKNTAYLQMNSLKPEDTAVYYCAKEDVGKPFDWGQGTLVTVSS
B15: 7-45 (VHH)
VHH: B14 VHH with I29L, A58N
B16: 7-22 (VHH, not shown: a dimerising Fc or GST)
VHH: B14 VHH with S30T, E98Q
B17: 7-41 (VHH)
VHH: B14 VHH with I29F, R31T, T33V, T52S, G54R, S56I, A58H
B18: 7-40 (VHH)
VHH: B14 VHH with I29F, S30R, S53K, G54F, A58N
B19: 3-24 (VHH, not shown: a dimerising Fc or GST)
VHH: EVQLVESGGGLVQPGGSLRLSCAASGINFSRYGMGWFRQAPGKEREFVASITYLGRTNYADSVKGRFTISADNSKNTAYLQMNSLKPEDTAVYYCALRVRPYGQYDWGQGTLVTVSS
B20: 8-3 (VHH, not shown: a dimerising Fc or GST)
VHH: EVQLVESGGGLVQPGGSLRLSCAASGTTLDYYAMGWFRQAPGKEREFVAAISWSGGSTAYADSVKGRFTISADNSKNTAYLQMNSLKPEDTAVYYCAREDYYDSSGYSWGQGTLVTVSS
B21: 7-8 (VHH)
VHH: B6 VHH with S30T, A49S, T52S, S53H, S54N, Y57T
B22: 7-31 (VHH, not shown: a dimerising Fc or GST)
VHH: EVQLVESGGGLVQPGGSLRLSCAASGFTFSNYSMGWFRQAPGKEREFVAAIHWNGDSTAYADSVKGRFTISADNSKNTAYLQMNSLKPEDTAVYYCAAQTEDSAQYIWGQGTLVTVSS
B23: 8-10 (VHH, not shown: a dimerising Fc or GST)
VHH: EVQLVESGGGLVQPGGSLRLSCAASGFIGNYHAMGWFRQAPGKEREFVAAVTWSGGTTNYADSVKGRFTISADNSKNTAYLQMNSLKPEDTAVYYCAREGYYYDSSGYPYYFDYWGQGTLVTVSS
B24: 7-17 (VHH, not shown: a dimerising Fc or GST)
VHH: EVQLVESGGGLVQPGGSLRLSCAASGFSLDYYGMGWFRQAPGKEREFVAAITSGGTPHYADSVKGRFTISADNSKNTAYLQMNSLKPEDTAVYYCASAYNPGIGYDWGQGTLVTVSS
B25: 7-32 (VHH)
VHH: B10 VHH with I31V, I51V, S52T, T56Y
B26: 7-24 (VHH, not shown: a dimerising Fc or GST)
VHH: EVQLVESGGGLVQPGGSLRLSCAASGFTFSRHAMNWFRQAPGKEREFVSTITGSGGSTNYADSVKGRFTISADNSKNTAYLQMNSLKPEDTAVYYCAREVGLYYYGSGSSSRRLLGRIDYYFDYWGQGTLVTVSS
B27: 3-17 (VHH, not shown: a dimerising Fc or GST)
VHH: EVQLVESGGGLVQPGGSLRLSCAASGRTSSSAVMGWFRQAPGKEREFVAAINRGGSTIYVDSVKGRFTISADNSKNTAYLQMNSLKPEDTAVYYCATGPYRSYFARSYLWGQGTLVTVSS

One experiment deals with T1, SARS-CoV-2 S1 (Acro) (SARS-CoV-2, UniProt P0DTC2 16-685).
T1 construct: also called Acro S1
Put plainly: Carterra SPR.
B1 had a Kd of 0.0522 µM.
Regarding B2, the affinity, expressed as Kd, was 0.0241 µM.
Same read-out and setting: for B3 the value was 0.0066 µM; for B4, 0.0487 µM; for B5, 0.0464 µM.
On the same count and under the same terms, the figure for B6 is 0.0248 µM; for B7 it is 0.021 µM.
The same measure, in the same setting: the figure for B8 is 0.0216 µM.
B9: the dissociation constant Kd was 0.0315 µM.
Molecule B10 registered a dissociation constant Kd of 0.0208 µM.

The next experiment deals with T1, SARS-CoV-2 S1 (Acro). Put plainly: Carterra SPR. This is another data set of the same source.
The molecule B11 yielded a dissociation constant Kd of 0.0312 µM.
With B1, the Kd worked out at 0.0522 µM.
In turn, B2 gave a Kd of 0.0241 µM.
As to B12, the equilibrium dissociation constant (Kd) is 0.0424 µM.
On to B13, for which the dissociation constant (Kd) is 0.0377 µM.
Still for that read-out and setting: for B14 the value was 0.0271 µM; for B15, 0.0363 µM.
Take B16: the Kd stood at 0.0409 µM.
Still for that read-out and setting: the figure for B17 is 0.0481 µM; for B18 it is 85.6 µM.
Regarding B19, the binding result was “no binding”.
Molecule B4 showed a dissociation constant Kd of 0.0487 µM.
Still for that read-out and setting: for B20 the value was 18.4 µM; for B6, 0.0248 µM; for B7, 0.021 µM.
Same read-out and setting: the figure for B8 is 0.0216 µM; for B21 it is 0.0528 µM.
On to B22, for which the affinity, expressed as Kd, was 0.228 µM.
Still for that read-out and setting: the figure for B23 is 658 µM; for B24 it is 0.0604 µM; for B10 it is 0.0208 µM.
Still for that read-out and setting: for B25 the value was 0.0485 µM.
With B26, the Kd was 4260 µM.
B27: the dissociation constant (Kd) turned out to be 0.141 µM.

The next experiment concerns the target SARS-CoV-2 S1 monomer (SARS-CoV-2, UniProt P0DTC2 16-685). Put plainly: binding kinetics, Carterra SPR.
B6 showed an equilibrium dissociation constant (Kd) of 0.00363 µM.
Still for that read-out and setting: for B7 the value was 0.00591 µM.
Take B8: binding was characterised by a dissociation constant (Kd) of 0.0171 µM, the koff was found to be 0.000528 s⁻¹ and the kon was determined as 30800 M⁻¹ s⁻¹.
B10 showed an equilibrium dissociation constant (Kd) of 0.00957 µM, a koff of 0.000404 s⁻¹ and a kon of 42200 M⁻¹ s⁻¹.
